This assay concerns the target His-tagged Grb3-3 SH2 domain and C-terminal SH3 domain (SH2Δ40CSH3) (human) (UniProt P62993). Nature of the assay: MST.

As a reminder, the Kd is a measure of binding affinity in units of concentration. Low values mean higher affinity, high ones lower affinity. With “Sos-C-Tail-6 truncated peptide (without GST) (from UniProt Q07889)”, the Kd came to 145 µM.

“Sos-C-Tail-8 truncated peptide (without GST) (from UniProt Q07889)” registered a Kd of 297 µM.

(Values after publication PMC9519967.)
